Source: publication PMC4204210 (Molecular cell, 2014)

Biological target: the molecule itself
Test: SEC-MALS

| Protein | stoichiometry N |
| --- | --- |
| Get3 purified under reducing conditions (Get3red) (natural protein, yeast) MDLTVEPNLHSLITSTTHKWIFVGGKGGVGKTTSSCSIAIQMALSQPNKQFLLISTDPAHNLSDAFGEKFGKDARKVTGMNNLSCMEIDPSAALKDMNDMAVSRANNNGSDGQGDDLGSLLQGGALADLTGSIPGIDEALSFMEVMKHIKRQEQGEGETFDTVIFDTAPTGHTLRFLQLPNTLSKLLEKFGEITNKLGPMLNSFMGAGNVDISGKLNELKANVETIRQQFTDPDLTTFVCVCISEFLSLYETERLIQELISYDMDVNSIIVNQLLFAENDQEHNCKRCQARWKMQKKYLDQIDELYEDFHVVKMPLCAGEIRGLNNLTKFSQFLNKEYNPITDGKVIYELEDKE | 2 |
| Get3 oxidised with 2 mM H2O2 / 50 µM Cu2+ (Get3ox) (natural protein, yeast, intramolecular disulfide bonds connecting the next-neighbor conserved cysteines (C242/C244 and C285/C288)) MDLTVEPNLHSLITSTTHKWIFVGGKGGVGKTTSSCSIAIQMALSQPNKQFLLISTDPAHNLSDAFGEKFGKDARKVTGMNNLSCMEIDPSAALKDMNDMAVSRANNNGSDGQGDDLGSLLQGGALADLTGSIPGIDEALSFMEVMKHIKRQEQGEGETFDTVIFDTAPTGHTLRFLQLPNTLSKLLEKFGEITNKLGPMLNSFMGAGNVDISGKLNELKANVETIRQQFTDPDLTTFVCVCISEFLSLYETERLIQELISYDMDVNSIIVNQLLFAENDQEHNCKRCQARWKMQKKYLDQIDELYEDFHVVKMPLCAGEIRGLNNLTKFSQFLNKEYNPITDGKVIYELEDKE | 4 |
